Earlier results in PMC3749792.

How the values were obtained:
Assay in all cases: NMR
Settings in all cases: RNase T1, presumably free unmodified enzyme (not stated explicitly)
His40 = His40 (UniProt position 66, SNSYPHKYNNY)
His92 = His92 (UniProt position 118, AGVITHTGASG)
His27 = His27 (UniProt position 53, AGYQLHEDGET)

**Q.** With “Ribonuclease T1 (RNase T1) (Aspergillus oryzae)” as the substance, how does the pKa (His40) read?
**A.** 7.92

**Q.** What about the pKa (His92) of the same substance?
**A.** 7.80

**Q.** What about the pKa (His27) of the same substance?
**A.** 7.26
